Reference: US12352767B2, “Method of treating cognitive decline associated with neurological diseases based on a decrease in FLT4 expression or activity” (University of Virginia Patent Foundation, priority 2018, dated 2025)
Entries after “also recorded” stand apart in the source; their conditions may differ.

Assays:
[1] = system: meningeal lymphatic vessels; assay: Meningeal whole-mount immunostaining (LYVE-1/CD31): lymphatic vessel area and diameter, blood vessel coverage
Protocol: Selective ablation of the meningeal lymphatic vessels was achieved by i.c.m. injection and transcranial photoconversion of Visudyne® (verteporfin for injection, Valeant Ophtalmics). Visudyne was reconstituted following manufacturer instructions and 5 μL was injected i.c.m. following the previously described procedure. […] Each spot was irradiated with a light dose of 50 J/cm^2 at an intensity of 600 mW/cm^2 for a total of 83 s. Controls were injected with the same volume of Visudyne (without the photoconversion step) or sterile saline plus photoconversion (vehicle/photoconversion). The scalp skin was then sutured, the mice were subcutaneously injected with ketoprofen (2 mg/Kg) and allowed to recover on a heating pad until fully awake.
A hydrogel of 1.4% hyaluronic acid and 3% methylcellulose alone (vehicle) or with 200 ng/mL of encapsulated human VEGF-C (PeproTech) or VEGF-C156S (R&D Systems) was prepared as described elsewhere^49. Briefly, lyophilized, sterile methylcellulose (4000 cP, Sigma-Aldrich) and sterile hyaluronic acid (1500-1800 kDa, Sigma-Aldrich) were sequentially dissolved in sterile 0.1 M phosphate buffered saline (PBS) at 4° C. overnight. Lyophilized VEGF-C or VEGF-C156S were resuspended as particulate at 2000 ng/mL in 0.5% sterile methylcellulose in PBS. The particulate solution, or vehicle 0.5% methylcellulose, was mixed into the hydrogel pre-solution at 1:10, and loaded into a syringe for gelation at 37° C. […] The hydrogels were prepared on the day of the experiment and kept warm inside the individual syringes until applied onto the mouse's skull. […] An incision was made in the scalp skin and the skull was thinned at the junction of all sinuses and above the transverse sinus. The shear-thinning properties of the polymers allowed the extrusion of 100 μL of each hydrogel solution from the syringe into the thinned skull surface. The scalp skin was then sutured on top of the solidified hydrogel, the mice were subcutaneously injected with ketoprofen (2 mg/Kg) and allowed to recover on a heating pad until fully awake.
Mice were given a lethal dose of anesthetics by intraperitoneal (i.p.) injection of Euthasol (10% v/v in saline). When needed, CSF was collected from the cisterna magna using a 0.5 mm diameter borosilicate glass pipette with internal filament and immediately stored at −80° C. Mice were then transcardially perfused with ice cold PBS with heparin (10 U/mL). Deep cervical lymph nodes were dissected and drop fixed in 4% paraformaldehyde (PFA) for 12 hours at 4° C. After stripping the skin and muscle from the bone the head was collected and drop fixed in 4% PFA. […] The brains were kept in 4% PFA for additional 24 hours (48 hours in total). […]

[2] = system: meningeal lymphatic drainage; assay: Drainage of CSF tracer (OVA-A647) into deep cervical lymph nodes; assay type: in vivo, mice
Protocol: (§1) Mice were anaesthetized by intraperitoneal (i.p.) injection of a mixed solution of ketamine (100 mg/Kg) and xylazine (10 mg/Kg) in saline. The skin of the neck was shaved and cleaned with iodine and 70% ethanol, ophthalmic solution placed on the eyes to prevent drying and the mouse's head was secured in a stereotaxic frame. After making a skin incision, the muscle layers were retracted and the cisterna magna exposed. Using a Hamilton syringe (coupled to a 33-gauge needle), the volume of the desired tracer solution was injected into the CSF-filled cisterna magna compartment. For brain CSF influx and lymphatic drainage experiments, 2 or 5 μL of Alexa Fluor® 594 or 647 conjugated OVA (Thermo Fisher Scientific), at 0.5 mg/mL in artificial CSF (#597316, Harvard Apparatus U.K.), were injected at a rate of 2.5 μL/min. After injecting, the syringe was left in place for additional 2 min to prevent back-flow of CSF.

brain parenchyma = assay: Brain perfusion/influx by CSF tracer OVA-A647 (brain sections); assay type: in vivo, mice; conditions: old mice
Protocol: as §1

[3] = system: meningeal lymphatic vessels; conditions: recombinant VEGF-C, previously shown (ref. 4); cited from earlier work
VEGFR3 = VEGFR3 (Homo sapiens, UniProt P35916); conditions: VEGFR3 vs VEGFR2 (refs. 34, 36); cited from earlier work
Sequence of VEGFR3 (P35916 25-1363, species assumed): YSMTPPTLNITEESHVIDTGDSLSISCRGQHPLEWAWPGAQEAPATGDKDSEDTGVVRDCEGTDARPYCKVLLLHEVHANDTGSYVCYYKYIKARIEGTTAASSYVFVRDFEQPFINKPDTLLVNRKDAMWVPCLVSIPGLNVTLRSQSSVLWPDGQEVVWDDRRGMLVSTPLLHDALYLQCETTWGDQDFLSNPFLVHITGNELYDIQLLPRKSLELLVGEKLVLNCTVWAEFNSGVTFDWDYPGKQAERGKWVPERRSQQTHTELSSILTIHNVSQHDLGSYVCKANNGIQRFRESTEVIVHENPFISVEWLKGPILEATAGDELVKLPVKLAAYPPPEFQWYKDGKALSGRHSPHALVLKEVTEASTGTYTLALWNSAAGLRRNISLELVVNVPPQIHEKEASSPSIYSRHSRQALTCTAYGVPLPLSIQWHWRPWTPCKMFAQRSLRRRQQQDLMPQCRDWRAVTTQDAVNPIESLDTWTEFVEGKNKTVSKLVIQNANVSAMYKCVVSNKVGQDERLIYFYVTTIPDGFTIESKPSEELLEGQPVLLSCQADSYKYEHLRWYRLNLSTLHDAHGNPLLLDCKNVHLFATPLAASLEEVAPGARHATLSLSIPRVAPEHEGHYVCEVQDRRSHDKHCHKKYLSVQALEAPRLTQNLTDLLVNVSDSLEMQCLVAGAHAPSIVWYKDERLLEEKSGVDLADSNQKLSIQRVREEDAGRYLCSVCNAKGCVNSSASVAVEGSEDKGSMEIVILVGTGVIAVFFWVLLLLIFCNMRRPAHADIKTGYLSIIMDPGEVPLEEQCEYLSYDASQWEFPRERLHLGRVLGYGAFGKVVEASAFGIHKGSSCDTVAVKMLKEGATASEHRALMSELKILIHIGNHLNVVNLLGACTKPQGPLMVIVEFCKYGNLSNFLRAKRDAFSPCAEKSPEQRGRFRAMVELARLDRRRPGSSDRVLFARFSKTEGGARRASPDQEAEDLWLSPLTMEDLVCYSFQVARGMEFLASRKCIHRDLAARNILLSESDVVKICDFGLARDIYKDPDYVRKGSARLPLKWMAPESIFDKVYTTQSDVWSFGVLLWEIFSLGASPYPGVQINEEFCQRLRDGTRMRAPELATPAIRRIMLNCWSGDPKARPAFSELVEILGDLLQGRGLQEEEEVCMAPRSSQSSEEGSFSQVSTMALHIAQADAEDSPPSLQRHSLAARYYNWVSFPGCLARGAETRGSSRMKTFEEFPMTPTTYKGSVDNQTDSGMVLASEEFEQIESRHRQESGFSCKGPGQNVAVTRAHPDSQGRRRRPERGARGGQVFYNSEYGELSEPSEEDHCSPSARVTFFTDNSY

Row | Molecule | meningeal lymphatic vessel diameter (superior sagittal sinus) ([1]; young/adult (3 months) and old (20-24 months) mice, hydrogel VEGF-C 200 ng/mL transcranial, 4 weeks, vs vehicle) | meningeal lymphatic function (OVA-A647 drainage into dCLNs) ([2]; old mice, transcranial hydrogel VEGF-C vs vehicle) | meningeal lymphatic function (OVA-A647 drainage into dCLNs) ([2]; young-adult mice, transcranial hydrogel VEGF-C) | brain perfusion by CSF macromolecules (OVA-A647 influx) (brain parenchyma; transcranial hydrogel VEGF-C) | diameter of meningeal lymphatic vessels [3] | meningeal lymphatic diameter (LYVE-1+ vessels, superior sagittal sinus) ([1]; old mice, hydrogel VEGF-C156S 200 ng/mL transcranial vs vehicle) | drainage of tracer from the CSF (OVA-A647 area fraction in dCLNs) ([2]; old mice, transcranial VEGF-C156S vs vehicle) | paravascular influx of tracer into the brain (OVA-A647 area fraction) (brain parenchyma; transcranial VEGF-C156S) | receptor binding specificity (VEGFR3)
1 | VEGF-C: recombinant human VEGF-C (PeproTech) encapsulated in hyaluronic acid/methylcellulose hydrogel for transcranial delivery (protein, UniProt P49767 112-227, looked up, in hyaluronic acid/methylcellulose hydrogel, recombinant human VEGF-C (PeproTech) encapsulated in hyaluronic acid/methylcellulose hydrogel for transcranial delivery) Vascular endothelial growth …: AHYNTEILKSIDNEWRKTQCMPREVCIDVGKEFGVATNTFFKPPCVSVYRCGGCCNSEGLQCMNTSTSYLSKTLFEITVPLSQGPKPVTISFANHTSCRCMSKLDVYRQVHSIIRR | increased diameter; also recorded: significant increase | significant increase; also recorded: increased drainage | did not respond | enhanced brain perfusion; also recorded: significantly increased | increases the diameter |  |  |  | 
2 | VEGF-C156S: mutant VEGF-C protein that binds specifically to VEGFR3, delivered in hydrogel transcranially (protein, UniProt P49767 112-227, looked up, variant C156S, delivered in hydrogel) Vascular endothelial growth …: AHYNTEILKSIDNEWRKTQCMPREVCIDVGKEFGVATNTFFKPPSVSVYRCGGCCNSEGLQCMNTSTSYLSKTLFEITVPLSQGPKPVTISFANHTSCRCMSKLDVYRQVHSIIRR |  |  |  |  |  | significant increase; also recorded: increased diameter | significant increase | significant increase | binds specifically to VEGFR3 and spares its effects on VEGFR2
